Test results as given in article PMC5154475, “Dual Therapeutic Action of a Neutralizing Anti-FGF2 Aptamer in Bone Disease and Bone Cancer Pain” (Molecular Therapy, 2016).

Target: T1, mouse recombinant FGF R3(IIIc)-Fc (mouse, UniProt Q61851 21-369)
T1 construct: FGF receptor 3, (IIIc) form, mouse, extracellular domain fused to IgG-Fc portion; also called FGFR3 (murine); source: bought: R&D Systems
T1 sequence (looked up): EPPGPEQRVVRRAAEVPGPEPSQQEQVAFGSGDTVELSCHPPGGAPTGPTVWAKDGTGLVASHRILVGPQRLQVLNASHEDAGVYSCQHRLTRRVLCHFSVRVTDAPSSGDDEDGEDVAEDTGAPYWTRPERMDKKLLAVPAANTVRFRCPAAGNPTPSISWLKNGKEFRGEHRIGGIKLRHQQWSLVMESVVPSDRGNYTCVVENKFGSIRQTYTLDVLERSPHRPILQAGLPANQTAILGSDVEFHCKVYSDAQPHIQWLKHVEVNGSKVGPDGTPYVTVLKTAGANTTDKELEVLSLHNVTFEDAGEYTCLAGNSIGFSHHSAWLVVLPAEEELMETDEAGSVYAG
Test: SPR; Biacore 2000; FGFR/Fc fusion proteins immobilised onto a CM5 sensor chip via prebound protein A (1,000 RUs); FGF2 injected with or without the RNA aptamer APT-F2; for FGFR1: receptor 100 nmol/l, FGF2 100 nmol/l, heparin 100 nmol/l, APT-F2 150 nmol/l
Conditions: both partners purified

binding result: binds
B1: murine FGF2 (ligand, UniProt P15655 10-154, looked up)
chain: PALPEDGGAAFPPGHFKDPKRLYCKNGGFFLRIHPDGRVDGVREKSDPHVKLQLQAEERGVVSIKGVCANRYLAMKEDGRLLASKCVTEECFFFERLESNNYNTYRSRKYSSWYVALKRTGQYKLGSKTGPGQKAILFLPMSAKS
notes: Fibroblast growth factor 2, mouse, recombinant; also called mouse FGF2; source: bought: PEPROTECH
